This data set deals with the molecule itself. Nature of the data set: NMR solution structure; 13C,15N-labelled P2 C at 6 mg/ml in 10 mM Na-phosphate pH 7.0, 150 mM NaCl, 10 % D2O; 13C- and 15N-NOESY-HSQC, 150 ms mixing time, 310 K, 900 MHz; CYANA2.1; homodimer interface found with aid from the crystal structure 2XCJ.

B1: C-repressor of bacteriophage P2 (natural protein)
chain: MSNTISEKIVLMRKSEYLSRQQLADLTGVPYGTLSYYESGRSTPPTDVMMNILQTPQFTKYTLWFMTNQIAPEFGQIAPALAHFGQNETTSPHSGQKTG
notes: C repressor of bacteriophage P2, a 99 amino acid protein; wildtype; signals of residues up to 99 are reported; Uniformly 13C,15N labelled for the structure (grown in M9 with 13C-glucose and 15N-NH4Cl); No tag is mentioned; also called P2 C; P2C; source: E. coli BL21(DE3) with plasmid pEE679, purified (DEAE flow-through, HiTrap Heparin, Superdex 200)
As for B1, the binding result is recorded as “binds”.

These data come from article PMC4752584, “The C repressor of the P2 bacteriophage” (Journal of Biomolecular Nmr, 2015).
